# Measurements: a protein production outcome set (Wang et al. 2014)
# Assay: label from the status in PepcDB records
row,Sequence,protein production
1,MNVWLLGRGELRRRHDDVLQLERAFLTDRTGLHFVNARSSEDLLALAESRRAEQQWPVLDAEWISPVGTDTCDDLVWQNLESTLDGRPDTFYSTAGFEAGNTLSGTGELAPGEAFLAYRFWRPVRVYAVQLRAFQADFHPGRPVYPFQVARVGVGCSLQAGMSLSYGADASAPGTSCNYRCFCTTEQQTLVFDDPMVGVYLVICLKGFPQQQLTDRLHYAAVSGIRVFGEPISSPALENELSCLISRGFILDGRDAARWLDLRSAQEHAAPMHIPEDEVI,not failed
2,MAYEQFAYVYDELMQDVPYPEWVAWVLEQVEPGKRIADIGCGTGTATLLLADHYEVTGVDLSEEMLEIAQEKAMETNRHVDFWVQDMRELELPEPVDAITILCDSLNYLQTEADVKQTFDSAARLLTDGGKLLFDVHSPYKMETLFNGKTYATHAEQSSYIWFADPGEEPLSVVHELTFFIEGEDGRYDRVDETHHQRTYPPEQYITWLREAGFRVCAVTGDFKSDAPTETAERIFFVAEKI,not failed
3,MIDPREPIVTPVPVEELRPTQITVGMREVALKRQMIREQDAKKKTGAFLGKHMVPVVLGPKNRNYVTDHHHLARALLEEGVKDVLVTVISDLSALDKDTFLFVLDNRGWMHPFDESGRRRDYSAIPKTIGELIDDPYRSMAGELRRMGGFAKDTTPFSEFIWADFLRRRIDRNAVAKNFDKAMKEALSLAKGKDADYLPGWCGPTSDLEHHHHHH,not failed
4,MVTDADYRELRGATETPREAVVVGLAGEVGLTSAEIPRVRPCDVAPHDHDGVTHYFLAVPGADGGSDRDAYLPPAVERDIRRRADAAGLADDDPLVDVSARRVQTLVNAVAGRTDTAGLDGVAAQDLRSFFARRLLTGAGVDPRVVAAVGGWSRLASLDQYAAVDALEHHHHHH,failed
5,FPPGTPLELGKEIAVYRIDGPVFFGAAERFATFLRDEPEVKYLILRLRFVPNMDTTGLVALEDIYHDLERHNCRLILTGLQPEVKQLLERTGLLKTIGLSNCFETTTDAICSISPQIQRCSQP,failed
6,MGIFETMSQVRRLPQALAAAVATPPALAGSGTLRGLIGLDDSLGEAVTTRAEALTIPAVLRARNLLSTTVARTPLVCDGTLPPFVPVAAPPGAATMQTPFHRMLATADDLLFNGVACWALDRDESGTCIGAIHIPLDTWQIEENTVRVNGKAVDPMEVCIFVGIHGGLLTHASETFTDARNLVRAAARVAQNPAALIELRQTNNAQLSPDDVDRIINGYVAARRGRNSGVGFSSSGLEVHEHEMAKENLLIEGRNAAAVDVARAMNVPAAFIDATVGGTSLSYQNAASRMIELVTFGVEPLMSAIEARLNQPDMHADHLANPLKFDPAALLDAIPTTPTIGAQPHGENS,not failed
7,MHYHGSCHCGTIRFDVEGELTGAMSCNCSICRRKGALLWFVPRDHLRLATPDEQIATYTFNRHLIKHRFCPTCGIHTHGEGVDQQGRAMAAINIRCLDDVDLDAVAVHQYDGRAA,failed
8,MSRINKFVLTVSLLIFIMISAVACGIYTQMVKERVYSLKQSVIDTAFAVANIAEYRRSVAIDLINTLNPTEEQLLVGLRTAYADSVSPSYLYDVGPYLISSDECIQVKEFEKNYCADIMQVVKYRHVKNTGFISFDGKTFVYYLYPVTHNRSLIFLLGLERFSLLSKSLAMDSENLMFSLFKNGKPVTGDEYNAKNAIFTVSEAMEHFAYLPTGLYVFAYKKDVYLRVCTLIIFFAALVAVISGASCLYLVRRVINRGIVEKEAIINNHFERVLDGGLFFSAADVKKLYSMYNSAFLDDLTKAMGRKSFDEDLKALPEKGGYLCLFDVDKFKNINDTFGHLLGDEVLMKVVKILKSQIPVDKGKVYRFGGDEFAVIYTGGTLEELLSILKEIVHFQVGSINLSTSIGVAHSNECPTVERLKMLADERLYKSKKNGRAQISWQ,failed
9,MEDQCIISHLAGIFSGVLATDFLRYAVGAGGVYLTVNLALAARLRARKIRAYEPPKGQIGREILASLRTVLIFALNGTLIVVGAEAGLVPIYREIATHGWAYLFFSTTVLIVAHDTWFYWSHRLLHYPPIFRRFHRLHHKSHNPTPFTSYSFDLGEAVVNAIYLPLILLVLPAHPVAILVFVTHMMLRNAIGHSGYEIFPANRRGKPLFDWITTVTHHDLHHAHAGYNLGLYFTWWDRLMGTEHPDYHEAFQKVAKPASWPSVRAVILAFAIFTGIAVSDARAERLSGAYASPGFGVIVRFEPCNANPGLTCGRMIWAWDAAEVPHAQSGDVIVIDLHGDGNVWSGRLKNPENGRMYRGSVVQRSPDTIVLRGCAGPFCTSQIWHSVRALRRALESAE,failed
10,MLKSVNLPVCHSLRNHLAVSSISTTPPSLIIPLLSPIFLRISSSSSNSVILNFSVKASFLVSKILLINLRAGFTGSLILSAGKPPFITSSSKSSIGTTPGVSKSQIFLVSLIICLPFVYPGIGAVPTECFPLSTFIIVLFPTFGYPINATLTLSLLIIFAIFFSSLLRIPVPFLSLAEIKTTGISLFLLYSSAHSLGTKSALFITNKSFLPLSKTILSSFLFLVPMGSLASTTSTTMSASSITSFTIAQAFFCFIPHHRYFKDYGTPWGIRGARVGTLDVGLILGSKPYFFWLHAFSERYYVG,failed
11,ATKEFIYLVRGMTPEQGQAALDLKVPGVYGIEEFRRFYPAGDVTAHMVGFTDLDDHGREGVELAYDDWLAGVPGKRQVIKDRRGRLIKDVQVTKNAKAGKTLALSID,failed
12,ELGLRSKTNVVSLDKIIIDKKSSLITGFPEFRMVWKVVRQRVVDDLVSVLDTDYLDMELIPNLTRQIAEQSIYSYIENGLKLLIDYAQKEITIDHSSDRDKILMDIGKDPYVVSIKSKVYLQDGRQFQFTESRHKLEKFRFVDFAKRKK,not failed
13,MKIEHVALWTTNLEQMKQFYVTYFGATANDLYENKTKGFNSYFLSFEDGARLEIMSRTDVTGKTTGENLGWAHIAISTGTKEAVDELTEKLRQDGFAIAGEPRMTGDGYYESVVLDPEGNRIEITW,not failed
14,MTRVTTTGIPMNNVPSGRHHVSTSRNLFAWFLFALLLLSLYLSYQLVAPFLHTIILSSVFSASIYPFYRRLTSYLGERPVPAALLVLAGVVILVVIPVVVFVIGLIPQAVASVSAITRWLAGHGGLDGLNDAALAPYIAWVRENLPFIDPAQLDVRSSLVQASRAAGQTLLQWGTYVLGNTLLLFGHFLLLLLCMFFMLKDGAWMVQRVRYLSPLRIDQQDRIILELRRVGRSVLVGGLLVAVIQGLLGGVALAAVGIPALFWGTLMAFASLVPVVGTGLVWVPAVCYLLLTSQWESALFLSLWCGIVVVGADSILRPYFMRGGVGMPVFFIFLSILGGVKAFGMLGILDGPLILSFTVVMLSLYGDEYRDILDAGSLAHSRGAECEKGEASEEGPDGT,failed
15,MPDNEVDLLFAQLSPEDLIEWSDYLPESFTDRALAQMGERQRQRFELYDQYSENEIGRYTDHQMLVLSDKATVAQAQRFFRRIELDCNDNLFIVDEADKYLGTVRRYDIFKHEPHEPLISLLSEDSRALTANTTLLDAAEAIEHSREIELPVIDDAGELIGRVTLRAATALVREHYEAQLMATAGMDESDDLFAPILKGAQRRAVWLGINLLTAFLASATIGLFENVLSQVVALAVLMPIVASMGGIAGSQSLTLMIRGMAMGQISAGNLFSLMKNELGIGLVNGTLWAIVIGLVAGWWFADSIIGIVIGCAILINMAVAALAGVFVPMIL,failed
16,MTRAKQIILWASLSAMPLIAQASERSDDEIKALVYQAILERPEIILQAVEQLQQAEEAAQAASAHAALTENRDSLFNDPNAPVLGNPEGDVTVVEFFDYNCPYCRRAMAEVQGLVDADPNVRLVYREWPILGEGSDFAARAALAARQQGKYEAFHWALMGMSGKANETGVLRIAREVGLDTEQLQRDMEAPEVTAHIAQSMALAQKLGFNGTPSFVVEDALVPGFVEQSQLQDAVDRARKAAAK,failed
17,MTSLPTPIIGLIVAVFVLVWLVLRTRVHALIAMLAAACIAGLLGGMGIDKTLSVITSGFGTTLGSIGLVIGLGVMMGRLLEVSGAAERIAWSFIKWLGKRREEWALAITGYIVSIPIFVDSAFVILYPVAKALAKSGKRSLLTLGVALAGGLAVTHHTVPPTPGPLGVAGIFNVDIGAMLLTGMALAVPCVIGIVFYAQWLDKRYPDFVPRTLNADEVNAALEQYNKEKEQKDLPSLTLSLLPIVVPIVLIFLKAICSTLATIEGWSGLATHPVVQAINFVGSPVIALAISVLLAVYTLVPRMDKHTTAERLEEGLQSAGIILLVTGAGGALGAILRDSGAGQQLAEQVANLPISPILIPFIVATLVRLIQGSGTVAMITAASISAPILAQIPGINMLLAAQAATMGSLFFGYFNDSLFWVVNRMMGVSDVKQQMVVWSVPTTIAWAIGGTGVALINLLFGSGGSWLDPLLPIVVLAAIMLWVRWQAQGIKDKLVVKD,failed
